Source: the supplement of paper PMC10598134
± gives the standard deviation.

Experiment: collision cross section of modified peptide (TIMS, N2, iRT-aligned); higher = larger / more extended gas-phase ion
How it was run: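 On a timsTOF Pro/HT (dda-PASEF, nitrogen, ~2.4 mbar), synthetic peptide pools were analysed after a 120-min nanoflow C18 separation at 60 °C and identified in MaxQuant. Three reference ions served for 1/K0 calibration, with run-wise alignment to the median iRT peptide deviation. Collision cross section comes from the Mason-Schamp equation, using the most abundant feature per charge state averaged over 1–3 technical replicates.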

[1] = charge state: 2, modification: Biotin
[2] = charge state: 3, modification: Biotin
[3] = charge state: 2, modification: Dimethyl (K)
[4] = charge state: 3, modification: Dimethyl (K)
[5] = charge state: 2, modification: Formyl
[6] = charge state: 2, modification: Acetyl (K)
[7] = charge state: 3, modification: Acetyl (K)
[8] = charge state: 2, modification: Glutarylation
[9] = charge state: 3, modification: Glutarylation
[10] = charge state: 2, modification: Butyryl

## DHLSDKESK [_DHLSDK(Biotin)ESK_]
[1]
  collision cross section: 368.95 Å²
[2]
  collision cross section: 429.55 Å²

## DKALPLEAEVAPVK [_DK(Dimethyl (K))ALPLEAEVAPVK_]
[3]
  collision cross section: 411.93 ± 0.85 Å²
[4]
  collision cross section: 502.53 ± 1.6 Å²

## SNEEGSEEKGPEVR [_SNEEGSEEK(Dimethyl (K))GPEVR_]
[3]
  collision cross section: 393.74 ± 1.1 Å²
[4]
  collision cross section: 467.17 ± 0.73 Å²

## IVSGKDYNVTANSK [_IVSGK(Crotonyl)DYNVTANSK_]
Charge state: 2, modification: Crotonyl
  collision cross section: 415.26 ± 1.1 Å²

## AGPNASIISLKSDK [_AGPNASIISLK(Formyl)SDK_]
[5]
  collision cross section: 404.66 ± 0.43 Å²

## TQDQISNIKYHEEFEK [_TQDQISNIK(Acetyl (K))YHEEFEK_]
[6]
  collision cross section: 481.39 Å²
[7]
  collision cross section: 555.65 ± 0.58 Å²

## ISALQGKLSK [_ISALQGK(Gluratylation)LSK_]
[8]
  collision cross section: 358.52 ± 0.083 Å²

## IISSIEQKEENK [_IISSIEQK(Gluratylation)EENK_]
[8]
  collision cross section: 411.03 ± 0.6 Å²
[9]
  collision cross section: 467.18 ± 1.7 Å²

## TEVLSPNSKVESK [_TEVLSPNSK(Dimethyl (K))VESK_]
[3]
  collision cross section: 400.19 ± 1.6 Å²
[4]
  collision cross section: 477.45 ± 2.4 Å²

## DYSAPVNFISAGLKK [_DYSAPVNFISAGLK(Biotin)K_]
[1]
  collision cross section: 458.59 ± 0.47 Å²
[2]
  collision cross section: 548.62 Å²

## DTPTSAGPNSFNKGK [_DTPTSAGPNSFNK(Dimethyl (K))GK_]
[3]
  collision cross section: 406.79 ± 1.1 Å²
[4]
  collision cross section: 455.12 ± 1.6 Å²

## ITASLCDLKSR [_ITASLCDLK(Methyl (K))SR_]
Charge state: 2, modification: Methyl (K)
  collision cross section: 398.61 Å²
Charge state: 3, modification: Methyl (K)
  collision cross section: 456.95 ± 2.7 Å²

## VPTTEKPTVTVNFR [_VPTTEK(Acetyl (K))PTVTVNFR_]
[6]
  collision cross section: 421.49 ± 1.9 Å²
[7]
  collision cross section: 507.52 ± 1 Å²

## VFIGNLNTLVVKK [_VFIGNLNTLVVK(Formyl)K_]
[5]
  collision cross section: 407.78 ± 0.74 Å²

## GETASKLQSEISR [_GETASK(Gluratylation)LQSEISR_]
[8]
  collision cross section: 403.5 ± 0.6 Å²
[9]
  collision cross section: 470.57 Å²

## FGTINIVHPKLGSYTK [_FGTINIVHPK(Formyl)LGSYTK_]
[5]
  collision cross section: 468.22 ± 1.4 Å²
Charge state: 3, modification: Formyl
  collision cross section: 546.15 ± 1.5 Å²

## VRFHNPR [_VR(Methyl (R))FHNPR_]
Charge state: 2, modification: Methyl (R)
  collision cross section: 340.13 ± 1.8 Å²
Charge state: 3, modification: Methyl (R)
  collision cross section: 406.89 ± 0.36 Å²

## IHVQSSSDSSDEPAEKR [_IHVQSSSDSSDEPAEK(Gluratylation)R_]
[8]
  collision cross section: 455.23 ± 1.5 Å²
[9]
  collision cross section: 511.69 ± 2 Å²

## LAEEENKAK [_LAEEENK(hydroxyisobutyryl)AK_]
Charge state: 2, modification: hydroxyisobutyryl
  collision cross section: 355.52 ± 0.78 Å²

## PASGAGAGAGAGKR [_PASGAGAGAGAGK(Propionyl)R_]
Charge state: 2, modification: Propionyl
  collision cross section: 359.78 ± 0.65 Å²
Charge state: 3, modification: Propionyl
  collision cross section: 464.2 ± 0.076 Å²

## VDVEVPDVSLEGPEGKLK [_VDVEVPDVSLEGPEGK(Butyryl)LK_]
[10]
  collision cross section: 469.33 ± 0.49 Å²

## ETTPSSLAVTQTMATK [_ETTPSSLAVTQT(HexNAc (ST))MATK_]
Charge state: 2, modification: HexNAc (ST)
  collision cross section: 451.07 Å²

## SGNLTEDDKHNNAK [_SGNLTEDDK(GlyGly (K))HNNAK_]
Charge state: 2, modification: GlyGly (K)
  collision cross section: 432.48 ± 1.6 Å²
Charge state: 3, modification: GlyGly (K)
  collision cross section: 495.64 ± 0.34 Å²

## SPSDSGYSYETIGKTTK [_SPSDSGYSYETIGK(Acetyl (K))TTK_]
[6]
  collision cross section: 448.1 ± 2.3 Å²
[7]
  collision cross section: 524.63 ± 0.47 Å²

## GYGVIFANGNR [_GY(Nitro (Y))GVIFANGNR_]
Charge state: 2, modification: Nitro (Y)
  collision cross section: 360.58 ± 1.2 Å²

## GSIGFPGFPGANGEKGGR [_GSIGFP(Hydroxyproline)GFPGANGEKGGR_]
Charge state: 3, modification: Hydroxyproline
  collision cross section: 489.41 ± 4 Å²

## GGPGSTLSFVGKR [_GGPGSTLSFVGK(Biotin)R_]
[1]
  collision cross section: 397.77 Å²

## LAEEENKAK [_LAEEENK(Butyryl)AK_]
[10]
  collision cross section: 353.86 ± 0.84 Å²

## IQQELQTAKK [_IQQELQTAK(Acetyl (K))K_]
[6]
  collision cross section: 374.24 ± 0.38 Å²
[7]
  collision cross section: 435.9 ± 0.91 Å²

## SLKLNTAEDAK [_SLK(Butyryl)LNTAEDAK_]
[10]
  collision cross section: 378.05 ± 1.5 Å²

## PASGAGAGAGAGKR [_PASGAGAGAGAGK(Succinyl)R_]
Charge state: 2, modification: Succinyl
  collision cross section: 354.83 ± 0.23 Å²
Charge state: 3, modification: Succinyl
  collision cross section: 462.42 ± 2 Å²

## YEEIVKEVSTYIK [_YEEIVK(Gluratylation)EVSTYIK_]
[8]
  collision cross section: 443.96 ± 1.5 Å²
